Measurements: the Human Domainome abundance scans (Beltran et al. 2025)

B1: Homeobox protein cut-like 1, residues 548 to 629; numbered along this chain, P39880 (parent)
chain: GEEMDTAEIARQVKEQLIKHNIGQRIFGHYVLGLSQGSVSEILARPKPWNKLTVRGKEPFHKMKQFLSDEQNILALRSIQGR

Variants of: B1
Experiment: abundance fitness (aPCA) (normalised: wild type 0, dead -1); higher = more abundant; growth selection in yeast, the domain comes from the species named
Settings: Homo sapiens

Abundance fitness, by site and new letter:
V31: E -0.681; D -0.839; T -0.488; G -0.766; R -0.947; S -0.806; L -0.391; W -0.133; C -0.179; N -0.713; Y -0.2; M -0.431; K -1.04; Q -0.882; H -0.988
I42: T -0.375; W -0.513; Y -0.351; L -0.013; F -0.242; R -1; D -0.723; M 0.004; N -0.633; P -0.819; K -0.747; C -0.253; V -0.104; E -0.707; A -0.36; Q -0.564
G28: N -0.259; R -0.52; I -0.233; V -0.452; F -0.329; H -0.485; Q -0.457; M -0.241; Y -0.374; W -0.764; T -0.47; E -0.188; K -0.745; P -0.726; D -0.349; S -0.05
G33: D -0.268; L -0.822; P -0.882; N -0.106; V -0.895; S -0.297; C -0.4; I -1.15; T -0.798; F -0.883; H -0.111; Y -1.16; A -0.341; R -0.351; E -0.312; K -0.217; W -0.969; Q -0.221
H29: W -0.102; M -0.052; T -0.022; E 0.06; G -0.357; D -0.036; P -0.621; F -0.15; Q 0.038; S -0.081; L -0.1; N -0.012; K 0.022; Y -0.125; R -0.051
E41: F -0.758; T -0.243; N -0.206; L -0.345; Y -0.412; A -0.13; M -0.377; V -0.433; S -0.265; Q -0.204; C -0.219; W -0.522; R -0.851; I -0.477; K -0.727; G -0.293; H -0.353; D -0.061
G37: Q 0.092; A 0.037; M 0.002; R 0.029; C -0.013; I -0.17; W -0.057; V -0.051; P -0.084; N -0.016; S 0.024; L -0.022; H 0.006; T 0.063; F -0.075; K 0.091; E 0.136; Y -0.034
S35: Q -0.029; R -0.209; C -0.086; F -0.126; P 0.062; N -0.081; L -0.384; H -0.238; D 0.154; W -0.311; Y -0.298; V -0.236; M -0.278; K -0.035; A -0.112; I -0.308; G -0.039
V39: Y -0.574; N -0.697; D -0.732; Q -0.676; R -0.915; I -0.212; L -0.101; T 0.086; K -0.898; H -0.844; M -0.249; E -0.456; P -0.642; A -0.177; G -0.725; C -0.025; F -0.165; S -0.316; W -0.33
Y30: F -0.126; N -0.282; P -0.742; K -0.091; E -0.034; H 0.014; D -0.337; R -0.201; G -0.552; C -0.065; W -0.184; T -0.147; V -0.053; M -0.122; L -0.111; I -0.024; A -0.082; Q -0.099
R45: E -0.009; H 0.103; A 0.03; F 0.008; P -0.797; T -0.003; M -0.049; I -0.361; Y -0.085; W -0.201; L -0.274; V -0.228; N -0.002; S 0.041; G -0.296; K -0.006; D -0.033; Q -0.021; C -0.001
L32: M -0.317; E -0.792; R -0.943; I -0.562; K -0.986; C -0.281; D -0.773; S -0.793; P -0.894; N -0.768; V -0.41; Y -1.01; H -0.723; A -0.732; Q -0.791; T -0.741; F -0.988; G -0.839
K47: F -0.338; E -0.037; A -0.116; D -0.08
L43: T -0.922; W -0.743; P -0.926; Y -0.699; D -0.68; I -0.534; K -1.03; R -1; V -0.769; G -0.929; Q -0.807; C -0.843; S -0.865; H -1.04; A -0.772; F -0.146; E -0.89; N -1; M -0.235
S38: Q 0.113; K 0.061; E 0.141; C 0.025; N -0.027; Y -0.112; V 0.097; T -0.005; M 0.11; W -0.273; I -0.008; R -0.711; F -0.181; P -0.079; A 0.072; H -0.031; G -0.049; L -0.005; D 0.125
S40: L -0.101; W -0.131; H 0.123; P -0.258; T 0.055; Q 0.017; F -0.162; K 0.032; G -0.06; M -0.051; A 0.057; N -0.018; D 0.078; I -0.117; Y -0.102; C -0.063; E 0.13
Q36: M -0.104; L 0.008; N -0.048; T -0.034; C -0.157; W -0.039; Y -0.045; E 0.055; H -0.017; A 0.021; R -0.049; I -0.059; P 0.071; V -0.025; K 0.025; D 0.056
P46: K -0.938; S -0.652; D -0.854; A -0.346; M -0.459; L -0.356; I -0.26; H -0.746; W -0.356; N -0.685; F -0.725; G -0.77; V -0.37; R -0.925; E -0.779; Y -0.594; Q -0.482
L34: R -0.393; M 0.09; T -0.213; C -0.047; N -0.362; P -0.519; G -0.461; I -0.052; W -0.264; F -0.167; D -0.274; Y -0.26; A -0.228; V -0.151; K -0.346; Q -0.173; S -0.349
A44: W -0.176; Q 0.053; L -0.027; Y -0.099; P -0.709; G -0.038; K -0.094; N 0.073; F -0.082; C -0.134; T 0.057; R -0.106; E 0.08; I -0.159; V -0.137; M 0.047; S 0.034; D 0.056
